Source: patent US20150098945A1 (Daiichi Sankyo, published 2015)

Tests used:
[1] = target: T1, rat ROBO4 (pCI-raROBO4-transfected HEK293 cells) (rat, UniProt Q80W87 38-949 at identity 0.93)); test: flow cytometry on transfected HEK293 cells
T1 chain: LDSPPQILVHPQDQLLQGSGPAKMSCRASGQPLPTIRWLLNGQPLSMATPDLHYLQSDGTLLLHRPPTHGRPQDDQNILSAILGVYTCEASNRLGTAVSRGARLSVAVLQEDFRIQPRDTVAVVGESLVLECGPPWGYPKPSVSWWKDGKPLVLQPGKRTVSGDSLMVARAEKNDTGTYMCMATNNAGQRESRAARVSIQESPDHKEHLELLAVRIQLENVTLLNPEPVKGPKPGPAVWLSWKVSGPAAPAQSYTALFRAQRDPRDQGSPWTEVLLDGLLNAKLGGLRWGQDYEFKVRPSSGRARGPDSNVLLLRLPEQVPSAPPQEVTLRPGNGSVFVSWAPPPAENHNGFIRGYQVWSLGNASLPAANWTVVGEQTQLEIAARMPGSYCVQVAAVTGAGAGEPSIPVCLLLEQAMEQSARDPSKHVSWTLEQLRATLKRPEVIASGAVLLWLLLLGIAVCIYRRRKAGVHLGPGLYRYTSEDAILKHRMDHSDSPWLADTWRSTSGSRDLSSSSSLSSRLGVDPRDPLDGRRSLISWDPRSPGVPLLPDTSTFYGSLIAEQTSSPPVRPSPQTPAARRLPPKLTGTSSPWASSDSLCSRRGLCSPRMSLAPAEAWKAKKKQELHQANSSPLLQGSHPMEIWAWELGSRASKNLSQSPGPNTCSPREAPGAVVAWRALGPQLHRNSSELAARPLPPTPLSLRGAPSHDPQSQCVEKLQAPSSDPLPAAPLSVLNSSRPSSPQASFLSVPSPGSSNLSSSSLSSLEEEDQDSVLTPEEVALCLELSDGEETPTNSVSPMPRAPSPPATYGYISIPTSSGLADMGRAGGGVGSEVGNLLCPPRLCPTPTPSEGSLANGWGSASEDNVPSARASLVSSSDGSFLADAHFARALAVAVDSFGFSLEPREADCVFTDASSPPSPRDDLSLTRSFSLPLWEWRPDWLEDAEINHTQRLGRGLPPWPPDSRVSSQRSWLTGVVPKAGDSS

[2] = target: T2, human ROBO2 (pCI-hROBO2-transfected HEK293 cells) (human); test: flow cytometry on transfected HEK293 cells
T2 chain: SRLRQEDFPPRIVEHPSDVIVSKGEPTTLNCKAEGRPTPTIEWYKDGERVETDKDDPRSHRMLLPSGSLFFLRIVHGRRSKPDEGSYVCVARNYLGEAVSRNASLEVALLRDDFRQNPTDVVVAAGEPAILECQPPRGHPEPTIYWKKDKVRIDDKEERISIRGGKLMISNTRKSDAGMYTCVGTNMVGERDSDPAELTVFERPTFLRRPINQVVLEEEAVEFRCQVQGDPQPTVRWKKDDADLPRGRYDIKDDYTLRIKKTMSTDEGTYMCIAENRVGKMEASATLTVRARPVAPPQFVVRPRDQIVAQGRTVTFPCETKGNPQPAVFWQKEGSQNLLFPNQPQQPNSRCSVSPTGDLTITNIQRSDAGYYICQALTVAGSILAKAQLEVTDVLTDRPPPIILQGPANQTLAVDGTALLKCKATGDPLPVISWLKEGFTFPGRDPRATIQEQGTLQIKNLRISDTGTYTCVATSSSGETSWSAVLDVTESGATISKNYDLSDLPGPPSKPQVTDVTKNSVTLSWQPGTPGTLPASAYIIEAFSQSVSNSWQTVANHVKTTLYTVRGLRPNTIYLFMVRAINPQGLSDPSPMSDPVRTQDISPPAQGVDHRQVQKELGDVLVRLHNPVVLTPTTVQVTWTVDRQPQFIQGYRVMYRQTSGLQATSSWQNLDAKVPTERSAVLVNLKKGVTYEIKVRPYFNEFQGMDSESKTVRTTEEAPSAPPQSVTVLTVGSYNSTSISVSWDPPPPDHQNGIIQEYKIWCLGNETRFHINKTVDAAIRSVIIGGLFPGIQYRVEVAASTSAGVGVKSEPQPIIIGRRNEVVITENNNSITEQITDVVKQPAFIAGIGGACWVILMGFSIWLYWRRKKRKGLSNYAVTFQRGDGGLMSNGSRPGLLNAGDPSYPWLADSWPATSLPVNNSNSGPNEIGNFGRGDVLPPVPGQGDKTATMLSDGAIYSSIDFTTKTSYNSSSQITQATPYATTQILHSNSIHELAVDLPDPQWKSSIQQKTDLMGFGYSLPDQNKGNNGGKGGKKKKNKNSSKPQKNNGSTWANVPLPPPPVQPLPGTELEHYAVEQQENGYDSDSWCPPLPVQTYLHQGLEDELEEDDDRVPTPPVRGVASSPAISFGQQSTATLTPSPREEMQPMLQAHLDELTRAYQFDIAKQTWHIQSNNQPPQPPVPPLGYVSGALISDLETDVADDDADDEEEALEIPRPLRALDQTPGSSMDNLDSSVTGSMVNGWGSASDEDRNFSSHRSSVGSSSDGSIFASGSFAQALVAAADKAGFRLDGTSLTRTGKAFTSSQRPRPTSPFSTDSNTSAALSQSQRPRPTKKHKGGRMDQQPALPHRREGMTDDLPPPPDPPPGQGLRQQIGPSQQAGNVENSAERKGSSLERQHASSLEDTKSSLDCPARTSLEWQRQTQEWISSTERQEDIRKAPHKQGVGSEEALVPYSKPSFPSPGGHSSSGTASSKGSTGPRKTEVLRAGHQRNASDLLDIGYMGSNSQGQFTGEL

B1: humanized MAb1 antibody H-1140 (antibody, human IgG2, kappa, V domains shown)
VH: EVQLVESGGGLVQPGGSLRLSCAASGFTFSTYAMSWVRQAPGKGLEWVATISQGGTYTYYPDSVKGRFTISRDNAKNTLYLQMNSLRAEDTAVYYCARLIYYDYLDYWGQGTLVTVSS
VL: DIVMTQSPLSLPVTLGEPASISCRSSQSLENSNGNTYLNWYLQKPGQSPQLLIYRVSNRFSGVPDRFSGSGSGTDFTLKISRVEAEDVGVYYCLQVTHVPWTFGPGTKVDIKR
notes: Human IgG2 / kappa constant regions; also called hMAb1-H2-type heavy chain + hMAb1-L1-type light chain
B1: no binding (tested: 10 µg/mL (method of 4)-3-2)) [1]; no binding (tested: 10 µg/mL (method of 4)-4-2)) [2].
